Test: soluble on expression in E. coli; label from the status in PepcDB or PDB records

Sequence | soluble on expression in E. coli
MHRCGESSVAGTDARIRLEGNRLFVGGPVTYDNVVEVIRTGDAAIKADDMLIDLAGVTWVDSSAVSMLLEWMRTAQTYDRRIEFINLPSNLADLIELYDVGSLIPTDKPAESV | not soluble
MAHHHHHHMNSNPTTEMTTTKKEHSQDNMCEIMNKSDKNNNSSLSSRSEKSQSEEIKLCNSGIFNEDKEKQYNDFLKSYNAEYSVEQMKNFLKNGITENGVRILTTDKCSWLYDYYRITKTSDPCVKELTGNTTVDYYYYTTPFSTQIGNINLVMMHSQVNFGDGTCAPADRFFKMNSTTPEMIKEAKLKAKNFQYECMQYI | not soluble
MGSSHHHHHHSSGLVPRGSHMLKQKELIANVKNLTESDERITACMMYGSFTKGEGDQYSDIEFYIFLKHSITSNFDSSNWLFDVAPYLMLYKNEYGTEVVIFDNLIRGEFHFLSEKDMNIIPSFKDSGYIPDTKAMLIYDETGQLENYLSEISGARPNRLTEENANFLLCNFSNLWLMGINVLKRGEYARSLELLSQLQKNTLQLIRMAEKNADNWLNMSKNLEKEISLENYKKFAKTTARLDKVELFEAYKNSLLLVMDLQSHLIEQYNLKVTHDILERLLNYISE | soluble
MAHHHHHHMSSAHKPTTQEAINFFKQYREKFQRSSSGGNSPSQNSVNASPQQNIVTQVQQVDVVPDLTTRSIIPMNRRNGTTTTRLDLLRKSPTNCSPCLVQEVEIKPLLPPLPFASVPKVTLVLDVDETLVHSTFQPSSDVVYDKVLLVPSEGKTYTVSVKYRPYLEDFLRFVSRRFEVVIFTASMRAYCDKLMDEIDPHGILGNLRLFREHCTFSERSYVKDLHRLGRDLRRVVILDNSPAAYSFQQRNAIPIKTWINDPKDRELFLLLPLLDRLAMCDSVYSELDPYNARGCDYL | not soluble
YICRLPAEEIGFPEFYPRISRSMKSIKRPNLIYPAGKGLAVHIYPDKEDVRNYYIPIEPCLFQKLDSMLEEVEKLLIDVIHDQEINTNDPEEKKKLLVKALEKTCD | not soluble
MRKVPIITADEAAKLIKDGDTVTTSGFVGNAIPEALDRAVEKRFLETGEPKNITYVYCGSQGNRDGRGAEHFAHEGLLKRYIAGHWATVPALGKMAMENKMEAYNVSQGALCHLFRDIASHKPGVFTKVGIGTFIDPRNGGGKVNDITKEDIVELVEIKGQEYLFYPAFPIHVALIRGTYADESGNITFEKEVAPLEGTSVCQAVKNSGGIVVVQVERVVKAGTLDPRHVKVPGIYVDYVVVADPEDHQQSLDCEYDPALSGEHRRPEVVGEPLPLSAKKVIGRRGAIELEKDVAVNLGVGAPEYVASVADEEGIVDFMTLTAESGAIGGVPAGGVRFGASYNADALIDQGYQFDYYDGGGLDLCYLGLAECDEKGNINVSRFGPRIAGCGGFINITQNTPKVFFCGTFTAGGLKVKIEDGKVIIVQEGKQKKFLKAVEQITFNGDVALANKQQVTYITERCVFLLKEDGLHLSEIAPGIDLQTQILDVMDFAPIIDRDANGQIKLMDAALFAEGLMGLKEMKS | soluble
MYSSNYIYQHDDLELHGFLAHEEGIKQSRPAVIVAHDWSGRGEFACLKAKQLAEMGYIGFALDMYGQGQIGSNNDEKMALMQPLYSDRSLLRGRLYAALEAIKSISVVDNNRIAIIGFCFGGLCALDLARSGADIRGAVSFHGLLNKPENLASGRIKAKILALHGYDDPMAKPEQVHAFCQEMTEANVDWQMHMYGQVKHAFTNPQAHDEHLGLIYDEVAARRSWQAMSQFLQEIFN | not soluble
MKLGFIGLGIMGSPMAINLARAGHQLHVTTIGPVADELLSLGAVNVETARQVTEFADIIFIMVPDTPQVEDVLFGEHGCAKTSLQGKTIVDMSSISPIETKRFAQRVNEMGADYLDAPVSGGEIGAREGTLSIMVGGEQKVFDRVKPLFDILGKNITLVGGNGDGQTCKVANQIIVALNIEAVSEALVFASKAGADPVRVRQALMGGFASSRILEVHGERMINRTFEPGFKIALHQKDLNLALQSAKALALNLPNTATCQELFNTCAANGGSQLDHSAMVQALELMANHKLS | soluble
TGKVHWSDELFNIFGRDPQKSAANYEELLNYIHPDDRDFVDGIIRNSFTGKRYGIDYRIIRDNGEERTVHAEKELIFDRN | not soluble
MGSDKIHHHHHHMEMLEEHRCFEGWQQRWRHDSSTLNCPMTFSIFLPPPRDHTPPPVLYWLSGLTCNDENFTTKAGAQRVAAELGIVLVMPDTSPRGEKVANDDGYDLGQGAGFYLNATQPPWATHYRMYDYLRDELPALVQSQFNVSDRCAISGHSMGGHGALIMALKNPGKYTSVSAFAPIVNPCSVPWGIKAFSSYLGEDKNAWLEWDSCALMYASNAQDAIPTLIDQGDNDQFLADQLQPAVLAEAARQKAWPMTLRIQPGYDHSYYFIASFIEDHLRFHAQYLLK | not soluble
MYTFKKGDADYQVMLNENFKEITDSFEDGLFVRKNSKILDLNDAILPGIYSIPATGVDNKPLPNSGSLFVCKDPGGVRQLFQTERTIFIRQLGGVPSSWTDWKKVAFEKEQPFEAWYSPGTNHAGFKNKARYNLGPEFSNIGQRLGLPMKSEPLEWNSGRWQAKVLRDCKLNISGTVKYHVGSSRGVLYAYTHIDKGLDEGVGDLGIGSAVGAVGGLDYKNVAAFDLNVTLKKGEYLAFRLELAADKQLDYTQLSSMHITELV | not soluble
MEAVVDVVDVEEVVEDVDVVVVDQDAVAVVDLNVVVLVVELVAVLDVVLAADHAVVDVVADVVVDAVDVEVEVVSVVPFKNFELMKPIVHLGLKKDHLMTNVSPIIYSPFIYYHDS | not soluble
MSRCKRCLLPHSAPGAAVDSSGICAFCRSYVPNDKNLSDQLHQQRQLDLEKALADCRGKGPYDVLVCLSGGKDSLYLLYRLKVEYKLNVLAFTTDVNIPDIAWNNIHRTIQKLDIDHLVYRPSAQFYRKLFRYLLMNQEERGAVYTVSYVYAPLFEGDALQVAMEKGIPLVLAGYSPGQPEPERMEFEFSRKLITETDWTPPGLRQSGEFTEEELARFWNPKRFPADTRFPRYLAPFHAWDYDQEAMIRKVHDLELVKRRAHGNPIYSNYPINWLLMYSDLKHFGYNPYAPEFSALIRAGKASRAYWWFMTPIVNFIIRNKLLIGRNTVDQLQQLGLQEDDLKITRPRGAYDPEID | not soluble
GPMGMQSIREQSCRVVTCKTCKYTHFKPKETCVSENHDFHWHNGVKRFFKCPCGNRTISLDRLPKKHCSTCGLFKWERVGMLKEKTGPKLGG | soluble
MKWSEYANLAQQSLEKFYLADTKEQFLNNFYPTENPEEDNKVFNYWWLAHLVEVRLDAYLRTKKQADLEVAEKTYLHNKNRNGGTLIHDFYDDMLWNALAAYRLYKATGKSIYLEDAQLVWQDLVDTGWNDIMGGGFAWRRPQMYYKNTPVNAPFIILSCWLYNELNETKYLEWAMKTYEWQTKVLVREDGFVEDGINRLEDGTIDYEWKFTYNQGVYIGANLELYRITKEAKYLDTANKTAAISLKELTEDGIFKDEGNGGDEGLFKGIFYRYFTDLIEETANKTYRDFVLNSCQILVENAKLDGYLLMGMNWKEKPSGKIPYSAELSGMIALEMAAKLELEHHHHHH | soluble
MLLLPSAADGRGTAITHALTSASTLCQVEPVGRWFEAFVKRRNRNASASFQELEDKKELSEESEDEELQLEEFPMLKTLDPKDWKNQDHYAVLGLGHVRYKATQRQIKAAHKAMVLKHHPDKRKAAGEPIKEGDNDYFTCITKAYEMLSDPVKRRAFNSVDPTFDNSVPSKSEAKDNFFEVFTPVFERNSRWSNKKNVPKLGDMNSSFEDVDIFYSFWYNFDSWREFSYLDEEEKEKAECRDERRWIEKQNRATRAQRKKEEMNRIRTLVDNAYSCDPRIKKFKEEEKAKKEAEKKAKAEAKRKEQEAKEKQRQAELEAARLAKEKEEEEVRQQALLAKKEKDIQKKAIKKERQKLRNSCKTWNHFSDNEAERVKMMEEVEKLCDRLELASLQCLNETLTSCTKEVGKAALEKQIEEINEQIRKEKEEAEARMRQASKNTEKSTGGGGNGSKNWSEDDLQLLIKAVNLFPAGTNSRWEVIANYMNIHSSSGVKRTAKDVIGKAKSLQKLDPHQKDDINKKAFDKFKKEHGVVPQADNATPSERFEGPYTDFTPWTTEEQKLLEQALKTYPVNTPERWEKIAEAVPGRTKKDCMKRYKELVEMVKAKKAAQEQVLNASRAKK | not soluble

Reference: the DeepSol protein solubility set
